Experimental findings from a protein production outcome set (Wang et al. 2014) are described below.

The data set can be described thus: label from the status in PepcDB records.
In the case of “MIPPSIRLTLRNLIVNTDPGTLLFLLGLPSFYLIVLGLMFQSIIPNVPFAGKDISYAQFLSPGVVAMQPFIAGSIGGSMLWSDRRWGMFEQLIVGPFHRIDYLLGIIYVSIIFSVGGAFLMFLVSYAITGFLVSYDINLLMIAVVLIVSSILFTSIFLVLSVFIRTIQTYNTVTMFVFFILDFASSAFYPINSRTPLGLRIVSYMNPLTYIVDAVRNMMFYKIGMQDYISLLIVVVLSGFFFLIALVSYGRARV”, the protein production result is recorded as “failed”.

Take “MAAFQIANKTVGKDAPVFIIAEAGINHDGKLDQAFALIDAAAEAGADAVKFQMFQADRMYQKDPGLYKTAAGKDVSIFSLVQSMEMPAEWILPLLDYCREKQVIFLSTVCDEGSADLLQSTSPSAFKIASYEINHLPLLKYVARLNRPMIFSTAGAEISDVHEAWRTIRAEGNNQIAIMHCVAKYPAPPEYSNLSVIPMLAAAFPEAVIGFSDHSEHPTEAPCAAVRLGAKLIEKHFTIDKNLPGADHSFALNPDELKEMVDGIRKTEAELKQGITKPVSEKLLGSSYKTTTAIEGEIRNFAYRGIFTTAPIQKGEAFSEDNIAVLRPGQKPQGLHPRFFELLTSGVRAVRDIPADTGIVWDDILLKDSPFHE”: the protein production entry is recorded as “not failed”.

With “MLENSITYEKPLYIIKMNQRKKIVQIALPAMAENLLQMLMGVVDNYLVAQIGLVAVSGVSVANNIITIYQAIFIALGAAVSSLVAKSLGEDNQARVRFYQSESVAITLMLSVVLGFISFVFGSNMLHLLGTTDSVTQAGGIYLAIVGGLVVSLGLQTTLGAILRAQGKARLPMYVSFLTNIVNVILATTAIYIGHWGIVGVAAATVLSRFLGTFVLACQLPIKAILRSMRIKIDKAFLAIALPSAGERLMMRAGDVVIIAIIVKFGTAAVAGNAIGETLTQFNYMPGMGVATATVILVAHNLGQGKKKVIKEVVRESYIISTVFMLLVGACIFFGGRQLTYLFTENKAALQASLVVLFYSFIGGPATSGTLVFTAVWQGLGKAKLTFYATTVGMWLIRIVLGYYLGVSLNLGLAGVWLATLADNVFRWLFLYCLYRKYMQGFNNNLSSS”, the protein production result is given as “failed”. The value for “MATMNEKDYYEILGVSKDATSRDIQKAFQQKARKLHPDVNKEPDAEEKFKEVSEAYAVLSDEQKRARYDAMRSGNPFAGAPTASPYGGGYAGSAGYGNPFDGGFPFGGAWGQPRRGQAAYNPESGANVVVDIKLDAKEAKSGAHKTVRYTRFDTCGHCGGSGSVSSEHAHTCPSCGGRGHIDVDLSFLFGAGTFQTVCPECGGSGKVVADPCPDCGGSGRIRVTSEQTIEFPAGTHDGDEVRIPNMGHAGTNGASGGDLVGRAHVEAERLEGKARTGFYLMGIIAPFLVLSAISGVFSAFAMMCFIPFAMGLFMVLSDGVLHRSLLWWKRGAMQFANGFANGFMFALVSVWFASCSQQAMLSPYGMQ” was “failed”; that for “MTRLFSRPYPLGATLNKEGCNFSIHAPGVKDIQLALFASDGSYSLHDLPNEYAGIRHTFIPDIKPGQKYGYVVTRRDEPLLISDPYAKSLDKALHYHPPYTPAKSFDMPKCVVIE” was “failed”; that for “MMSNLCKYGPPPDSDSDSSYDGFYFSDKVKRSKPAPYVDPEQKLYDAVVAGDLKTMQEEMRKLVLQVDQPVKGGLNLLMLACREGHYKIVEWLLERAGANVNRQLDSLMPLMMACNTTHKDPCLAERIVGLLLRHGAVINVSEKYGMTPFMFACQNGFAGVVRLLIKDASFDAVDNQGCTAIFHAIEKNHVEVVKLLVEAGANATIANNKGYTPTQVAECHGYYDLLEILPRPASTYLVPTHFLGYNTLRDHIPRIFLKSDCPEYFQELNGILEAINIGNMVQYFAIARISLADFLVMDEQSLREIGIEYPIFRHKILTGILDFHLHHWSNSSIARVKKDEMNNFYEILLITASHLQHLVIIQASLRFILKNQEHNKMGQPSEMQVAAMKSNLQGYRDVLNQITKTVKYLGSFSPSQNPLFIDFNEILAERKRKKVRSYFKYTTIILGISVFICLKCKWFS” was “failed”. The value for “MRIGHGFDVHKFGENGSGPLIIGGVRIPYEKGLLAHSDGDVALHAATDALLGAAALGDIGKLFPDTDPAFKGADSRGLLREAYRRILAKGYKLGNLDITIIAQAPKMAPHIPQMRVNLAEDLQCHMDDINVKATTTEQLGFTGRGEGIACEAVVLLVNVEQG” was “not failed”; that for “MTFSQMILNLQNYWQEQGCAIMQPYDMPAGAGTFHPATFLRSLGKKPWAAAYVAPSRRPTDGRYGENPNRLGAYYQFQVLIKPSPDNIQELYLKSLENLGFDLKSHDIRFVEDNWESPSLGAWGLGWEVWLDGMEVTQFTYFQQVGGIAVDLVSAEITYGLERIAMYLQNVDNVYDIVWSEFNGEKIKYADVHKQSEYEFSKYNFEVSDVKILNEQFENSYKECKNILEQGLALPAYDYCMLAAHTFNLLDARGAISVAQRQDYMLKIRELSKNCAEIYKKNLNEAE” was “not failed”; that for “MKSRIIVRTSFDAAHAVKVGDHWEDVHGHTFFLEVAIEGEIKNGYVMDFLELRKIVEEITKELDHRNLNNIFENPTTENIALWIGERIRDKLPPYVKLKRVVLWEGKDNGVELEW” was “not failed”. The value for “TRNTLDIRTVAHREADGSYRIKGEKFYSTGALFAHWVSIKALDDNGKTVMAFIERGTQGLRIVDDWSGFGQRTTASGTVLLDDVSVPAKQVVP” was “failed”; that for “MENETVSELNQTQLQPRAVVALEYQVVTILLVLIICGLGIVGNIMVVLVVMRTKHMRTPTNCYLVSLAVADLMVLVAAGLPNITDSIYGSWVYGYVGCLCITYLQYLGINASSCSITAFTIERYIAICHPIKAQFLCTFSRAKKIIIFVWAFTSLYCMLWFFLLDLNISTYKDAIVISCGYKISRNYYSPIYLMDFGVFYVVPMILATVLYGFIARILFLNPIPSDPKENSKTWKNDSTHQNTNLNVNTSNRCFNSTVSSRKQVTKMLAVVVILFALLWMPYRTLVVVNSFLSSPFQENWFLLFCRICIYLNSAINPVIYNLMSQKFRAAFRKLCNCKQKPTEKPANYSVALNYSVIKESDHFSTELDDITVTDTYLSATKVSFDDTCLASEVSFSQS” was “failed”; that for “MIEVLSVITSATVQDLGRWGYQRYGVPVSGVMDEVSARIANYLVGNPDNTPLIEFTAGGISIKFHTSAVFAVTGDATLYLNDTQLEPWESYWAKRGDVLTVRLSKGMYGYIAFSGGIECRKILGSCSTYLRAKFGGLLKPGDKLKLGYSLLTGKAGKRLPEELRPRFDKTVRVILGPNIEHFTPEGMRTFLTSEYTVTPESDRMGYRLEGPRIEHSEKGADIITEPIPRGAIQVPANGKPIIMLADAQTTGGYAKIATVIRVDIPMVVQTRPGEKLRFKAVSVNEAVQELRKRERI” was “not failed”. For the sequence “MKICLIDETGTGDGALSVLAARWGLEHDEDNLMALVLTPEHLELRKRDEPKLGGIFVDFVGGAMAHRRKFGGGRGEAVAKAVGIKGDYLPDVVDATAGLGRDAFVLASVGCRVRMLERNPVVAALLDDGLARGYADAEIGGWLQERLQLIHASSLTALTDITPRPQVVYLDPMFPHKQKSALVKKEMRVFQSLVGPDLDADGLLEPARLLATKRVVVKRPDYAPPLANVATPNAVVTKGHRFDIYAGTPVLEHHHHHH”, the protein production entry is recorded as “not failed”.

Regarding “MNVDARVGVAVDGAQSALNTATTVHSSVVMTQIKPQAKLGTFQNLLAGGIAGAISKTCTAPLARLTILFQLQGMQSEGAVLSRPNLRREASRIINEEGYRAFWKGNLVTVVHRIPYTAVNFYAYEKYNLFFNSNPVVQSFIGNTSGNPIVHFVSGGLAGITAATATYPLDLVRTRLAAQRNAIYYQGIEHTFRTICREEGILGLYKGLGATLLGVGPSLAINFAAYESMKLFWHSHRPNDSDLVVSLVSGGLAGAVSSTDDKLFDAHNYVATYPLDLVRRRMQVEGAGGRARVYNTGLFGTFKHIFKSEGFKGIYRGILPEYYKVVPGVGIVFMTYDALRRLLTSLPD”, the protein production result was “failed”. For “MSVQTIERLQDYLLPEWVSIFDIADFSGRMLRIRGDIRPALLRLASRLAELLNESPGPRPWYPHVASHMRRRVNPPPETWLALGPEKRGYKSYAHSGVFIGGRGLSVRFILKDEAIEERKNLGRWMSRSGPAFEQWKKKVGDLRDFGPVHDDPMADPPKVEWDPRVFGERLGSLKSASLDIGFRVTFDTSLAGIVKTIRTFDLLYAEAEKGS” the value was “not failed”; for “MAIMASRKHLKRFKSPVHWPIHPKEYKWTVKPSPGPHAIENSLPLMIIVRDILKVADNAREARKIINSGEVLVDGRPRKNYKFPVGFMDVVSIPRTGDVYRVLPDERGRLVLHPIDEENAGFKLCKIVNKTTIKGGRTQLNLHDGRNYLSDDEFRVGDVVKLSIPEQEILERIPFEKDSLGLVTGGRHTGEIGKIKKINITRSSMPNTAVIETGAGKTFLTLKDYVFVIGKDESVISLPGGKLEHHHHHH”, “failed”; for “MVPAPEAIRQALQERLLARLDHPDPLYRDLLQDYPRRGGKMLRGLLTVYSALAHGAPLEAGLEAATALELFQNWVLVHDDIEDGSEERRGRPALHRLHPMPLALNAGDAMHAEMWGLLAEGLARGLFPPEVLLEFHEVVRRTAYGQHLDLLWTLGGTFDLRPEDYFRMVAHKAAYYTAVAPLRLGALLAGKTPPAAYEEGGLRLGTAFQIVDDVLNLEGGEAYGKERAGDLYEGKRTLILLRFLEEAPPEERARALALLALPREAKPEAEVGWLLERLLASRALAWAKAEAKRLQAEGLALLEAAFQDLPGKEALDHLRGLLAALVERRA”, “not failed”. For “MNPIPADVAAVVLAGGVGRRFGRPKALAMMDGISLVERAVEALSSGPADVYVSVSPALERPVARLVGSRRVIVDLVEQAPCEGPLRAFLTAASTLVSYSNLVFMPVDAPWASWRDLEPIYNASKAIGSGASYFSGEGIVHPLFLAARRKSLLTAAWTACWGRAEKRASAILRSLDPLILLGSSETRSPLALATVNTPQDLWRPSRVPAPAEGYILLEGHSILYKISSTMNSYYSALALEAEYKLYRRLGLLRLASHVLKDAAALNVSTSLIQQESMAGGLGLEHHHHHH” the value was “failed”; for “MITIDPEYFEILKEFGAERVVRCYQCGTCTGICPVSTTDASFPRKPVLLSRFGVGEVIENFEEAWLCLSCNLCTEFCPRDVKPSETMLAIKRVLVENGKTPPYIRDFFQNIMKQKNPWGIGKFKREDWVKKSDVEVPKVKDNPEYEWLWFVGCAHAFENRNINVTLKMARILSDLGINFATLGREEGCCGNDVRRAGEEGLFEVLMEENIKTFGKYGVQRLFTHSPHCFNAFKNWYEGYEVKLFLEILRDAIKSGKLELKNKLDLTVTYHDSCYLGRYNGIYDLPREVLKLIPGVELVEMKSNRRMSLCCGGGAGNIVGDYPGEIQPARVRAQEAAETGANVLAVACPFCLLMLEDGVKTEKLDKQLVVKDIVELVYEAAYGEE”, “failed”; for “DGKLYTLNYGKVSSIALDPIEKKPLFHFWPGSCAFSIGTVGCNMHCKHCQNWEISQADESFPYLQDATPESIVRLARHYECESIAYTYNEPTIWYEFVLDTAKLAKKEGLNNILVTNGYINEEPFRELAKYIDAMNIDIKAFNDKFYMKISSVPSGEPSRRTAVIAKKEFGIHVELTYLIIPTLNDNEEEIRRFARWVVEELGDDTPVHFSRFFPHYKLLNLPPTPIQTLEKAYKIAKEEGLKFVYLGNVPGHEGENTYCPRCGKLLIERWGFEILRYEIKDGKCKY”, “failed”. Take “MIRNTSNGWGSVSRWLHWILALTIIGMIGFGWWMNHIPARPDRFFYRSIHADIGYVILLLTVLRLVWRVVNPTPALPADSQPWQRLAARISHGALYLAVIAVIVLGWAHSGAHAPDYSDFFGLFHVPQFTSPDRAAANAYEDRHILFAYVLLALIAVHVVAALWHHFIRRDRVVTRMVADEAG”: the protein production result is “failed”.
